Target: T1, AcTPase4xOs (enhanced, rice codon-optimized Ac transposase with SV40 NLS) (Zea mays (engineered)) (UniProt P08770)
T1 sequence (P08770 whole entry, looked up): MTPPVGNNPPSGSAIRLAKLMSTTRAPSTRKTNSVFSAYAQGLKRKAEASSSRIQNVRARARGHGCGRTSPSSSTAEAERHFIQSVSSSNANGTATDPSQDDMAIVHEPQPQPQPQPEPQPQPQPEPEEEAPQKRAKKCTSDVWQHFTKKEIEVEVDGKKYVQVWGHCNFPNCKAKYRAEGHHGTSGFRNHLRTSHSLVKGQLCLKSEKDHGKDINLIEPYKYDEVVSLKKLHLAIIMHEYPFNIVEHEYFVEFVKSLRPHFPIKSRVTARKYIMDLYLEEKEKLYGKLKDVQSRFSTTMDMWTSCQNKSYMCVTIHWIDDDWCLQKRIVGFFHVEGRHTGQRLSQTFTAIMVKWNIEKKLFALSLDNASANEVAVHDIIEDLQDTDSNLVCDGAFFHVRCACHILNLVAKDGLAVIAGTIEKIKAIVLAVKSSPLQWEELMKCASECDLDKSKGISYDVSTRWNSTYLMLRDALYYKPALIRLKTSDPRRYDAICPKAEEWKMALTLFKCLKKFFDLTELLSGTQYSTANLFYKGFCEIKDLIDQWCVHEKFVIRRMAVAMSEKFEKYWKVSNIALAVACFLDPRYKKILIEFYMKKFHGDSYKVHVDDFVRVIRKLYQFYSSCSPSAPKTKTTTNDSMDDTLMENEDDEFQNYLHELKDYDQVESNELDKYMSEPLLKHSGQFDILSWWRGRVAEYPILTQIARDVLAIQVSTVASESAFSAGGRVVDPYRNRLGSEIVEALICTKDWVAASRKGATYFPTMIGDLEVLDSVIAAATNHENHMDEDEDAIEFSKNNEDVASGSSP
Assay: cell_activity
Conditions: pZEN31E in rice callus, heat shock 42 C 90 min; 81.1% without heat shock; 0% for pZEN30NC lacking transposase

Sequence “CAGGGATGAAAGTAGGATGGGAAAATCCCGTACCGACCGTTATCGTATAACCGATTTTGTTAGTTTTATCCCGATCGATTTCGAACCCGAGGTAAAAAACGAAAACGGAACGGAAACGGGATATACAAAACGGTAAACGGAAACGGAAACGGTAGAGCTAGTTTCCCGACCGTTTCACCGGGATCCCGTTTTTAATCGGGATGATCCCGTTTCGTTACCGTATTTTCTAATTCGGGATGACTGCAATATGGCCAGCTCCAACTCCCATCCATAACCACTGAGGCCCAGCCCATGTAAGAATGCTCCAGATTTATATGGATTTTATCTATGTTTAATTAAGACTTGTGTTTACAATTTTTTATATTTGTTTTTAAGTTTTGAATATATGTTTTCATGTGTGATTTTACCGAACAAAAATACCGGTTCCCGTCCGATTTCGACTTTAACCCGACCGGATCGTATCGGTTTTCGATTACCGTATTTATCCCGTTCGTTTTCGTTACCGGTATATCCCGTTTTCGTTTCCGTCCCGCAAGTTAAATATGAAAATGAAAACGGTAGAGGTATTTTACCGACCGTTACCGACCGTTTTCATCCCTA (double strand)” has an activity (% callus lines with excision) of 95.1.
